# Assay results: US20160090426A1 (WUHAN YZY BIOPHARMA, published 2016)
# T1: EpCAM on EpCAM-positive HCT116 cells (UniProt P16422 24-314, limits assumed)
# T1 construct: whole, on cells; Tumor cell surface antigen; also called CD326
# T1 sequence (looked up): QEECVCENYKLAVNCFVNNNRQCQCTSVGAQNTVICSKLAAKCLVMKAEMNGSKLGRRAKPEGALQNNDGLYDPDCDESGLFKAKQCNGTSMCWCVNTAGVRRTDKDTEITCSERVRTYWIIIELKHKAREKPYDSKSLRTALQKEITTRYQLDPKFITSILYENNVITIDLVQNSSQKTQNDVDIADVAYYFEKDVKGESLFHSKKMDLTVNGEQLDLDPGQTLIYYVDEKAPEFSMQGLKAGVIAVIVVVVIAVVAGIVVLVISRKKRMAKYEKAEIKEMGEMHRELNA
# Assays:
# [1] = target: T2, CD3 on CD3-positive Jurkat cells; experiment: flow cytometry on Jurkat cells, KD fitted from mean fluorescence intensity
# T2 construct: whole, on cells
# Protocol: (§1) Enough HCT116 cells are cultured, digested with 0.25% trypsin and then collected by centrifugation. In the meantime, the bispecific antibody was diluted according to the concentration beginning from 10 ug/ml and ten-fold gradient dilution to obtain twelve concentration gradients for later use.
# Enough Jurkat suspension cells were cultured and collected by centrifugation. The same as the steps described in the example forementioned, in the following experimental process, the cells resuspended with 100 ul PBS were detected on an instrument, and the binding affinity KD value of the bispecific antibody and the Jurkat cells was analyzed and calculated according to the mean fluorescence intensity by using software GraphPadPrism 5.0.
# [2] = target: T1, EpCAM on EpCAM-positive HCT116 cells; experiment: flow cytometry on HCT116 cells, PE anti-human IgG Fc, KD fitted from mean fluorescence intensity
# Protocol: as §1
# [3] = target: T1, EpCAM on EpCAM-positive HCT116 cells; experiment: cell-based or functional assay
# [4] = target: T2, CD3 on CD3-positive Jurkat cells; experiment: cell-based or functional assay
binder,measurement,setting,value
"EpCAM×CD3 bispecific antibody M701 (bispecific antibody, human IgG1, kappa, Heterodimer of one anti-EpCAM heavy/light chain pair (IgG form) and one anti-CD3 ScFv-Fc; also called EpCAM×CD3 MSBODY; EpCAM×CD3 MSBODY bispecific antibody) heavy: EVQLLEQSGAELVRPGTSVKISCKASGYAFTNYWLGWVKQRPGHGLEWIGDIFPGSGNIHYNEKFKGKATLTADKSSSTAYMQLSSLTFEDSAVYFCARLRNWDEPMDYWGQGTTVTVSSASTKGPSVFPLAPSSKSTSGGTAALGCLVKDYFPEPVTVSWNSGALTSGVHTFPAVLQSSGLYSLSSVVTVPSSSLGTQTYICNVNHKPSNTKVDKKVEPKSCDKTHTCPPCPAPELLGGPSVFLFPPKPKDTLMISRTPEVTCVVVDVSHEDPEVKFNWYVDGVEVHNAKTKPREEQYNSTYRVVSVLTVLHQDWLNGKEYKCKVSNKALPAPIEKTISKAKGQPREPQVYTLPPSRDELTKNQVSLWCLVKGFYPSDIAVEWESNGQPENNYDTTPPVLDSDGSFFLYSDLTVDKSRWQQGNVFSCSVMHEALHNHYTQKSLSLSPGK light: ELVMTQSPSSLTVTAGEKVTMSCKSSQSLLNSGNQKNYLTWYQQKPGQPPKLLIYWASTRESGVPDRFTGSGSGTDFTLTISSVQAEDLAVYYCQNDYSYPLTFGAGTKLEIKRTVAAPSVFIFPPSDEQLKSGTASVVCLLNNFYPREAKVQWKVDNALQSGNSQESVTEQDSKDSTYSLSSTLTLSKADYEKHKVYACEVTHQGLSSPVTKSFNRGEC not shown",Kd,[1],14.3 nM
same,Kd,[2],9.6 nM
same,ratio of bifluorescence via flow cytometer detection (double positive CFSE-HCT116 / PKH-26-Jurkat cells),[3],27.5%
same,ratio of bifluorescence via flow cytometer detection (double positive CFSE-HCT116 / PKH-26-Jurkat cells),[4],27.5%
